Data on one substance can be found in paper PMC5761276.

Usually Kd stands for the constant that tells how readily two partners part at equilibrium. A high value points to weaker binding. One may read the koff as the rate constant with which the complex falls apart. High values mean a short-lived complex, low ones a long-lived complex.

Experiment [1] has as its target LAT-FYFF (monovalent LAT1Y, residue 48-233), phosphorylated (UniProt O43561). Briefly: ITC. (In general: In ITC the heat of successive injections is recorded.)
The target is the same in experiment [2]. Kind of experiment: single-molecule dwell time analysis.

Chain of Grb2-Alexa Fluor 647 (P62993 whole entry): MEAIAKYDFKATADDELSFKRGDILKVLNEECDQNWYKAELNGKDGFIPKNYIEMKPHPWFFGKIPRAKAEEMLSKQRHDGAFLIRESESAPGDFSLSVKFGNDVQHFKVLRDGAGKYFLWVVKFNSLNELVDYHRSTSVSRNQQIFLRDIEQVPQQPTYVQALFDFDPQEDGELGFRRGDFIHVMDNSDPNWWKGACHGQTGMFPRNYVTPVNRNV

“Grb2-Alexa Fluor 647 (from UniProt P62993 1-217) (natural protein)”: in experiment [1], the Kd is 463 nM and the dH was -15 kcal/mol. Further, in experiment [2], the koff was determined as 3.4 s⁻¹ and the relative on-rate (against LAT-FFFY:Grb2 = 1) amounted to 1.25.
